The values below come from patent US20230049752A1 (University of California, published 2023).

Residue numbers refer to the chain shown, from its start.

Sequences and labels used below:
T1: mouse Claudin-6 (CLDN6) (mouse, UniProt Q9Z262 1-219)
T1 construct: whole, on cells; GFP fusion on engineered HEK293T cells; also called Mouse CLDN6; murine CLDN6
T1 sequence (looked up): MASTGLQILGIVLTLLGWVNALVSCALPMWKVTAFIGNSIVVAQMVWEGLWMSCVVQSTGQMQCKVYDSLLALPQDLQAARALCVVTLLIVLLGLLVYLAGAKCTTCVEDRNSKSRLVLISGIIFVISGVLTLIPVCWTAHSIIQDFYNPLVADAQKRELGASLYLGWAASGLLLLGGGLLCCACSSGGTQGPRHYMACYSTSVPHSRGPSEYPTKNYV

B1: AB S2 (antibody, V domains shown)
VH: EVQLLESGGGLVQPGGSMRLSCAASGFTFSNYWMNWVRQAPGKGLEWIAQIRLKSDNYATHYADSVKGRFTISRDDSKRTVYLQMNSLRAEDTGTYYCSDGPPSGSWGQGTLLTVSS
VL: DIQMTQSPSSLSASVGDRVTITCRISENIYSYLAWYQQKPGKAPKLLVYNAKILVEGVPSRFSGSGSGTDFTLTISSLQPEDFGTYYCQHHYTVPWTFGQGTKLEIK
B2: AB S3 (antibody, V domains shown)
VH: B1 VH with A59V, A63T, T95I
VL: B1 VL
B3: AB1-11 (antibody, V domains shown)
VH: QVQLVQSGAEVKKPGASVKMSCKASGYTFTTYTMHWVRQAPGQGLEWIGFINPSSGYTDYAQKFQGRVTLTADKSTSTVYMELSSLRSEDTAVYYCANGDYYVAYWGQGTLVTVSS
VL: DIQLTQSPSSLSASVGDRVTMTCTASSSVSSTYFHWYQQKPGKAPKLWIYSTSNLASGVPSRFSGSGSGTDYTLTISSMQPEDAATYYCHQYHRSPLTFGQGTKLEIK
notes: humanized; also called humanized AB1-11; HU-11
B4: AB18-chim (antibody, V domains shown)
VH: QVQLKQSGPELEKPGASVKISCKASGYSFTGYNMNWVKQSNGKSLEWIGNIDPYYGGSTYNQKFTGKATLTVDKSSSTAYMQLKSLTSEDSAVYYCARERSGYVFSAMDYWGQGTSVTVSS
VL: NIMMTQSPSSLAVSAGEKVTMSCKSSQSVLFSSNQKNYLAWYQQKPGQSPRLLIYWASTRESGVPDRFTGSGSGTDFTLTISNVQAEDLAVYYCHQYLSSRTFGAGTKLELK
B5: AB4-6 (antibody, V domains shown)
VH: QVQLVQSGAEVKKPGASVKMSCKASGYTFTSYTMHWIRQAPGQGLEWIGYINPSSTYTHYAQKFQGRATLTADKSTSTAYMELSSLRSEDTAVYYCSRGELGGFAYWGQGTLVTVSS
VL: DVVMTQSPLSLPVTLGQPASISCRSSQSLVHSDGNTYLNWYQQRPGQSPRLLIYKVSNRFSGVPDRFSGSGSGTDFTLKISRVEAEDVGVYYCSQSTHVPYTFGQGTKLEIK
notes: humanized
B6: AB4-8 (antibody, V domains shown)
VH: QVQLVQSGAEVKKPGASVKVSCKASGYTFTSYTMHWVRQAPGQGLEWMGYINPSSTYTHYIKKFKDRVTMTADTSTSTVYMELSSLRSEDTAVYYCSRGELGGFAYWGQGTLVTVSS
VL: B5 VL
notes: humanized
B7: AB4-11 (antibody, V domains shown)
VH: B5 VH with A61I, Q62K, Q65K, G66D
VL: B5 VL
notes: humanized
B8: AB4-7 (antibody, V domains shown)
VH: B5 VH with L45Q
VL: B5 VL
notes: humanized
B9: AB4-9 (antibody, V domains shown)
VH: B5 VH with A61I, Q62K, Q65K, G66D, K74T
VL: B5 VL
notes: humanized
B10: AB4-10 (antibody, V domains shown)
VH: B5 VH with L45Q, A61I, Q62K, Q65K, G66D, K74T
VL: B5 VL
notes: humanized
B11: AB4-12 (antibody, V domains shown)
VH: B5 VH with L45Q, A61I, Q62K, Q65K, G66D
VL: B5 VL
notes: humanized

The first assay concerns the target human Claudin-6 (CLDN6) (human) (UniProt P56747). Briefly: FACS, limiting dilution, UMUC4 cells. (In general: A flow cytometer gives signals particle by particle.)
B1 showed an FACS signal at 0.32 nM of 505, an FACS signal at 1.6 nM of 746, an FACS signal at 8 nM of 2270 and an FACS signal at 40 nM of 6970. The FACS signal at 200 nM was 20000.

Regarding B2, the FACS signal at 0.32 nM was 533, the FACS signal at 1.6 nM was found to be 647, the FACS signal at 8 nM is 1980 and the FACS signal at 40 nM stood at 7780. For the same molecule, the FACS signal at 200 nM stood at 20800 and the FACS signal at 1000 nM was determined as 45300.

For B3, the FACS signal at 0.32 nM was 618, the FACS signal at 1.6 nM was found to be 839, the FACS signal at 8 nM is 1610 and the FACS signal at 40 nM worked out at 4160. Also, the FACS signal at 200 nM was 25700.

For another assay the target is unchanged. Briefly: FACS, 1.5 ug Ab, OVCA429 cells (2nd Ab only 885.77).
B4 had an FACS fluorescence of 25500.

For the next assay the target is unchanged. Briefly: FACS, limiting dilution, OV90 cells.
As to B1, the FACS signal at 0.32 nM was 537, the FACS signal at 1.6 nM worked out at 1510, the FACS signal at 8 nM was determined as 3950 and the FACS signal at 40 nM is 18100. This molecule registered an FACS signal at 200 nM of 53400.

B2: the FACS signal at 0.32 nM is 482, the FACS signal at 1.6 nM is 1040, the FACS signal at 8 nM came out at 4470 and the FACS signal at 40 nM is 19500. This molecule also had an FACS signal at 200 nM of 63100.

On to B3, for which the FACS signal at 0.32 nM was 452, the FACS signal at 1.6 nM amounted to 753, the FACS signal at 8 nM was found to be 2150 and the FACS signal at 40 nM is 7820. For the same molecule, the FACS signal at 200 nM stood at 32500 and the FACS signal at 1000 nM turned out to be 72100.

The target is the same in another assay. Briefly: FACS, limiting dilution, ARK2 cells.
Regarding B1, the FACS signal at 0.32 nM was 608, the FACS signal at 1.6 nM came to 956, the FACS signal at 8 nM was determined as 4840 and the FACS signal at 40 nM turned out to be 21000. Moreover, the FACS signal at 200 nM turned out to be 83400.

B2 returned an FACS signal at 0.32 nM of 372, an FACS signal at 1.6 nM of 933, an FACS signal at 8 nM of 4830 and an FACS signal at 40 nM of 24600. For the same molecule, the FACS signal at 200 nM amounted to 83600.

B3: the FACS signal at 0.32 nM worked out at 377, the FACS signal at 1.6 nM was 639, the FACS signal at 8 nM turned out to be 2290 and the FACS signal at 40 nM is 3460. The FACS signal at 200 nM is 16400 and the FACS signal at 1000 nM came to 50500.

In the next assay the target is T1, mouse Claudin-6 (CLDN6). Nature of the assay: FACS, 293T clone expressing mouse CLDN6, dose not stated (2nd Ab only 1061.72). The method, then: Two doses (1.5 μg or 0.3 μg) of the humanized antibodies were tested for binding to either human CLDN6 or murine CLDN6 which proteins were expressed by engineered 293T clones.
In turn, B3 gave an FACS fluorescence of 101000.

The molecule B5 yielded an FACS fluorescence of 14200.

Consider B6, for which the FACS fluorescence worked out at 4700.

In turn, B7 showed an FACS fluorescence of 1230.

The molecule B8 yielded an FACS fluorescence of 6640.

For B9, the FACS fluorescence was 1780.

For the molecule B10, the FACS fluorescence was 2650.

As for B11, the FACS fluorescence was 1130.

The target of another assay is human Claudin-6 (CLDN6) (human) (UniProt P56747). Nature of the assay: FACS, 1.5 ug Ab, 293T clone expressing human CLDN6 (2nd Ab only 768.07).
For B4, the FACS fluorescence came out at 135000.

In turn, B3 yielded an FACS fluorescence of 113000.

B5 gave an FACS fluorescence of 29200.

B6 displayed an FACS fluorescence of 77600.

Molecule B7 displayed an FACS fluorescence of 61200.

Regarding B8, the FACS fluorescence turned out to be 33300.

As to B9, the FACS fluorescence was determined as 56900.

In turn, B10 yielded an FACS fluorescence of 77200.

For the molecule B11, the FACS fluorescence was determined as 86200.

A further assay has the same target. Briefly: FACS, 1.5 ug Ab, ARK2 cells (2nd Ab only 1351.21).
Turning to B4, the FACS fluorescence was determined as 9150.

B3: the FACS fluorescence is 97700.

Molecule B5 had an FACS fluorescence of 9840.

For B6, the FACS fluorescence turned out to be 7310.

B7: the FACS fluorescence was 9170.

Regarding B8, the FACS fluorescence was 7560.

As for B9, the FACS fluorescence came out at 7790.

For the molecule B10, the FACS fluorescence came to 20200.

B11: the FACS fluorescence turned out to be 24200.

Another assay has the same target. Briefly: FACS, 0.3 ug Ab, 293T clone expressing human CLDN6 (2nd Ab only 768.07).
Turning to B4, the FACS fluorescence is 73800.

As to B3, the FACS fluorescence is 64900.

For the molecule B5, the FACS fluorescence is 10800.

B6 yielded an FACS fluorescence of 49300.

In the case of B7, the FACS fluorescence worked out at 37800.

In the case of B8, the FACS fluorescence was found to be 19200.

In turn, B9 returned an FACS fluorescence of 37200.

Molecule B10 returned an FACS fluorescence of 50800.

Molecule B11 gave an FACS fluorescence of 71100.

Another assay shares this target. Briefly: FACS, 0.3 ug Ab, ARK2 cells (2nd Ab only 1351.21).
In the case of B4, the FACS fluorescence stood at 3440.

B3 gave an FACS fluorescence of 53900.

B5 displayed an FACS fluorescence of 3300.

B6: the FACS fluorescence is 3120.

For B7, the FACS fluorescence amounted to 6390.

Molecule B8 gave an FACS fluorescence of 2770.

In turn, B9 displayed an FACS fluorescence of 3060.

Molecule B10 had an FACS fluorescence of 7210.

As to B11, the FACS fluorescence amounted to 9690.
